Experimental data from the supplement of paper PMC12042874.
± gives the uncertainty stated by the source.

Experiment: amyloid nucleation score (Sup35N fusion, yeast selection) (log enrichment); library NNK1; higher = more nucleation; inactive = no reads after selection
How it was run: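 Sup35N was fused to peptides of 20 random codons and expressed in psi-negative yeast, which were induced with 100 μM copper sulfate for 24 hours and then grown on medium lacking adenine and uracil for 7 days at 30°C. Plasmid inserts from input and output were sequenced on Illumina. The nucleation score is the DiMSum log enrichment of output over input reads, centred on the mode score of non-aggregating sequences. Sequences with under 100 input reads were left out, and random libraries had three technical output replicates.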

Row | Substance | amyloid nucleation score
1 | RIGGETGCV | 0.216 ± 0.27
2 | MPPMYGRGRPMNKIGVWDYA | 1.14 ± 0.51
3 | TFLYKKLTFEVVWGCLIASE | -0.041 ± 0.84
4 | HRSKS | -0.087 ± 0.32
5 | GIRQLMAPYKPERWCWQRVG | 0.344 ± 0.51
6 | LLPYSLMLRDLGFLKHYLGV | -0.264 ± 0.61
7 | PLLGASSRYDHAMLCGNRTF | 0.127 ± 0.33
8 | VVFRGIVCCCQ | 0.3 ± 0.58
9 | NADMFRTVLMMMFPAFRLIR | 0.172 ± 0.22
10 | TVTYRLYVPATVCFKILFRR | -0.625 ± 0.33
11 | QTTTLYRFCCEWQSPASVVM | 0.333 ± 0.97
12 | VLTLSTKLCLHRGGWTTKPT | 4.2 ± 0.068
13 | MFIASGV | -1.65 ± 0.84
14 | CYSVIRREQNLNILV | 1.71 ± 0.53
15 | TMFIFCWKTGVCLYCNLFTS | -0.591 ± 0.4
16 | GSNVSSTM | 0.537 ± 0.51
17 | QVWWDVNEPPDLTPQGSRWG | inactive
18 | WYKMSRRGQ | 0.857 ± 1
19 | YNKCLCAVLSRMFTGWHISA | 0.795 ± 0.88
20 | GFELEAIKEYFGCWPSHYRF | inactive
21 | EDTSKVKICFSVIVYSMLNR | 8.161 ± 0.045
22 | TFGSETESMLNTKYSSGCVG | 0.067 ± 0.55
23 | SAYPCCLSEDYVSSSGVSNK | 0.74 ± 0.48
24 | WNVDVGSLC | inactive
25 | GKNDLSMNIGELWASGRGVV | 2.18 ± 0.24

Row | Substance | amyloid nucleation score
26 | MSDVCNVMKKVMQGTCFCGH | -0.293 ± 0.27
27 | FPESNKLMV | 1.06 ± 0.65
28 | CNICNPI | -0.585 ± 1.6
29 | DTSGSYMLSYLWGYWQLRSA | 0.073 ± 0.56
30 | VSVFLHAVITDPS | 1.9 ± 0.46
31 | YVGRNLWK | 0.402 ± 0.47
32 | GCTSGGLCIGPPRSV | 0.906 ± 1
33 | IAHFELMRHNVHLKWVESWL | 0.911 ± 0.27
34 | WPTIPAVQCRRVVCSRDTWA | -0.185 ± 0.31
35 | FIIKYK | 2.26 ± 0.19
36 | ETITKVVQQLSRLDKLSTYW | 1.53 ± 0.26
37 | ADYVKMNRDFRVGTTYDMST | 1.18 ± 0.65
38 | YGHCFDFGVRTVLFNGFSLI | 1.29 ± 0.84
39 | LGTSEKGNRKNR | inactive
40 | YVQLI | -0.256 ± 0.39
41 | RFARHCSRIS | 0.769 ± 0.36
42 | LSMGAHSGGPLQSY | -0.205 ± 1.1
43 | GAIIFLSCGWSKCFCTLWVI | -0.381 ± 0.38
44 | TWEFRYNFFYNVPRLQTYKI | -0.169 ± 0.42
45 | FSAIMVRC | inactive
46 | FFIYPWFRMTFERRLDGELG | 1.62 ± 0.27
47 | SMVAPRPANVRVRLVGRGST | 0.354 ± 0.51
48 | LCCRLMTTICPKLCSVLLMS | 0.217 ± 0.28
49 | DWRYPLAYPVFSIDSRMFD | -0.312 ± 0.46
50 | MSCTVHLGLFMESTNHYCMC | inactive

Row | Substance | amyloid nucleation score
51 | RHADIWSDFPR | 1.53 ± 0.7
52 | PGWYFDTGSAPLQVSRRSGL | 0.66 ± 0.63
53 | KHWSCRYWEEFGGMDHNLDW | 1.1 ± 0.38
54 | FIEQGHYNHTGFGSYGWRF | 0.972 ± 0.29
55 | PTRPMTTELRRKVRRPALDG | -0.139 ± 0.62
56 | LYRVTYSNACMFGVVG | 0.695 ± 0.54
57 | SCTGCLFDTELRWISWVGLF | 0.074 ± 0.39
58 | LLWTKFGYCYRIEWSAVWFF | -0.527 ± 0.52
59 | TCNRHSDTEGLC | -1.13 ± 0.66
60 | IPNGNVSSSLSVGIMPVAFR | 4.36 ± 0.092
61 | LYVHSFFRFMWSDKVLLSKT | 0.856 ± 0.56
62 | SVPRSGKALLLSMMQLGYDS | 0.09 ± 0.39
63 | IGGCLETCCSLGDKLGRRKR | 1.07 ± 0.66
64 | YNIVPSADWVSWHGRLTGRR | 1.42 ± 0.61
65 | SYGSVCNDNQSNRRYVHIHM | 2.89 ± 0.22
66 | DMTAVYLFVTVYSYDLSC | 0.569 ± 0.14
67 | NSYKNYCVLCECRC | 4.21 ± 0.07
68 | YFHIESGLYYTWFMLYGPGR | 0.154 ± 0.61
69 | DLVYC | -0.307 ± 0.52
70 | LRISSFDMDNSVWFSRVYNY | 0.844 ± 0.26
71 | SLVDGSHNNFRGWVPIVVQG | -0.079 ± 0.99
72 | GIETRMDWEV | 1.67 ± 0.52
73 | DCCKLTDQQWDVIHAGIWGG | 1.55 ± 0.69
74 | SETLTMFRYCISIRDKGPQG | 1.24 ± 0.37
75 | FAHTLGA | 0.333 ± 0.79

Row | Substance | amyloid nucleation score
76 | GGIYSLSMNIVWATGCL | -0.361 ± 0.93
77 | ASFYPKPS | 0.4 ± 1.1
78 | MVGYGECIDMWPMLVKVDVV | -0.378 ± 0.69
79 | SIRTLQDNSTSSENFKVESV | 0.273 ± 0.64
80 | FIATNLSLYGFVYWLLSTTT | 0.414 ± 0.42
81 | LWFDYFPF | -0.096 ± 0.43
82 | GFGPDQFITESDSFTSAFVS | 0.125 ± 0.55
83 | MSRIEGHRLDVLSRHFR | -0.046 ± 0.32
84 | LFVLKTWLRNSDWFRYDESQ | -0.094 ± 0.68
85 | RVGYIYHYYLDNQG | -0.175 ± 0.38
86 | KMLSSQLITRPFGGPKRHKP | 0.753 ± 0.65
87 | CLPLACLKTLSNDSVWLDCA | 0.402 ± 0.35
88 | VSVQMAGIF | -0.863 ± 0.54
89 | VLLVGVSDESRSRSPQGMSP | 0.243 ± 0.84
90 | CIFAYKCSIYERESL | 0.776 ± 0.49
91 | SMSFRCLDAKDVPDRASQGY | -0.385 ± 0.39
92 | VVDFGSGCI | 0.423 ± 0.46
93 | NNCSWIIGHRVVPTSRGE | -0.329 ± 0.45
94 | FPENGLRSFSCPLVH | 0.382 ± 0.66
95 | WVIVRYRNFCVCGRPSKDIG | 0.263 ± 0.32
96 | CLWGILDEGRFGSWFNNFAS | 0.467 ± 0.9
97 | SYSYRLQPFIAMLLGSFL | -1.04 ± 2.7
98 | CLETRYL | 1.15 ± 0.54
99 | IAFTVWADWYLPKLGLIREL | 0.508 ± 0.74
100 | LVMHVSWNVFIAVVLIFKDG | 0.375 ± 0.43

Row | Substance | amyloid nucleation score
101 | RYGPAVLKSSGAAAVGHS | -0.59 ± 0.59
102 | HWTMYLVQLDSDSAIFFGHM | 2.52 ± 0.15
103 | AFSYRGGVMRSSFEMLTYVS | -0.906 ± 0.61
104 | IWDHCFGPVKCCNIWGKEVG | 5.1 ± 0.079
105 | VIVVVPLFGGRLCRVVRHR | 0.278 ± 0.62
106 | RGGNLSRAFNYVRYIITHKN | 0.145 ± 0.46
107 | RTSDLFAIMKVLDIMMSYTE | inactive
108 | YEYQEKFSFYIEVLGKDSLS | -0.864 ± 0.41
109 | FGKFKRRRGMSKMNRMEITK | -0.841 ± 1.5
110 | YHGVTLVSLLRYKLW | 1.28 ± 0.27
111 | VTMVRYCALIQSYGGDGELV | 0.26 ± 0.45
112 | TDAPHTCWLFFLYSVSFLIV | -0.204 ± 0.43
113 | PYCFYPRCC | 0.015 ± 0.85
114 | FLYWSHSYFLITWFRCVLEI | inactive
115 | LYGPQSPGRSPVSTFGRGRF | 0.321 ± 0.4
116 | LTFRRRYRWGQGTCINFCRR | 0.082 ± 0.67
117 | SFFWDT | -0.524 ± 0.51
118 | SLRYSLCRL | 0.328 ± 0.24
119 | SLLTCILGFPSCPGASMMFQ | 7.057 ± 0.067
120 | STLPMHRNMTLRRLSCVQSY | -0.069 ± 0.34
121 | WCSDKSVGRAKDDDSGTRRC | -0.018 ± 0.46
122 | IAVNSYASVDTYTSLLIRWL | 0.993 ± 0.36
123 | LTGASSNTSVLVNWGVASYC | 1.13 ± 0.62
124 | MNTWDMSLIPWSLARWVNTA | 0.063 ± 0.4
125 | FCNRFRCSGSVRWLREVEYM | 0.291 ± 0.46

Row | Substance | amyloid nucleation score
126 | RECFRQANFCFMGLSTLGKS | -0.88 ± 0.79
127 | TWSRAQM | inactive
128 | GRAEAKLY | -0.118 ± 0.31
129 | DHPCTTWVLPSYGPEDPLPC | 0.175 ± 0.35
130 | YHVYSVRSNVWALLKIRLV | 1.14 ± 0.58
131 | YRGYDKREYCSHFFTWDTYG | 0.821 ± 0.72
132 | LVMYCWRTYVYLRTSRGYDA | 0.259 ± 0.61
133 | SRGFKPMPGQYFCKG | 0.165 ± 0.26
134 | RRVLSRGSAVSWALSSGGD | -0.586 ± 0.46
135 | IPTLRSPVNRWPRITMKVWL | -0.161 ± 0.62
136 | GSMWGGFPVG | 1.07 ± 0.85
137 | DPNFITMACQIADECAYCCH | inactive
138 | SSFLASGL | -0.529 ± 1.3
139 | IQQTLPQRYMYNEIRPCSSL | 0.502 ± 0.19
140 | VMCAT | -0.048 ± 0.59
141 | LGLDGCSSMLEEDFCR | 0.45 ± 0.52
142 | AKRLWIQLRGVHSRMLTGYY | -0.244 ± 1.5
143 | MEISLVINWSIIITKVCVCV | 0.497 ± 0.33
144 | SSSHDSIVFVRRLPHYCRGF | 0.323 ± 0.43
145 | GLVSSSLGGYVDADSYFECD | inactive
146 | GSVDQSMC | 0.968 ± 0.45
147 | KGTAPGNSGGERVVMNSHDL | 2.61 ± 0.22
148 | TAGFPLCYNCYEKP | -0.625 ± 0.35
149 | NWSHGLLTPNVCW | -0.573 ± 1.4
150 | CLCSYYKILVYSSLVLDNAY | 0.58 ± 0.45

Row | Substance | amyloid nucleation score
151 | MRQWSGQG | 0.758 ± 1
152 | STLSAYCPTILA | 0.171 ± 0.25
153 | DTKIDACIRNSLHGWSRMAR | 0.181 ± 0.38
154 | LYFVLPTNKLPDRSY | -0.403 ± 0.84
155 | STVGPMWVWTTTLAKNAIPK | 0.833 ± 0.57
156 | TSKSTLYSECVMWPVDPEPT | 0.273 ± 0.58
157 | TLRVIAVVDTFSRVYFR | 3.58 ± 0.12
158 | MSMYYISSCIISLSQVGMYV | 1.26 ± 0.38
159 | GSSTMIGMANSFVVGLDSNE | inactive
160 | FLGLLLCCLVRAPLPFGMRA | -0.459 ± 0.56
161 | NRIRRWWTFRVLGDSQKCVD | 0.411 ± 1
162 | YFYDLSRCLFIHCTVGSQIL | 7.769 ± 0.044
163 | GSTRVRTCGRKLMCALS | 0.835 ± 0.24
164 | FFKGGVNGIFINNGSTFG | 4.91 ± 0.067
165 | CMDRSLMVNNTRPYGCLLEY | 6 ± 0.061
166 | QPSKCGAWGPLFIAGVGLTQ | 0.231 ± 0.33
167 | VLMMVLGRWDTSSVMFIMMV | 0.343 ± 0.97
168 | TNVNF | -1.24 ± 0.74
169 | PFVDVTRHRNSPS | 1.01 ± 1
170 | NSYRFSLFQ | 1.32 ± 0.46
171 | GGHFWWNTGQARVNWTIRLE | 0.123 ± 0.48
